± gives the uncertainty stated by the source.
B1: POU domain, class 4, transcription factor 1, residues 266 to 347; numbered along this chain, Q01851 (parent)
chain: RELEAFAERFKQRRIKLGVTQADVGSALANLKIPGVGSLSQSTICRFESLTLSHNNMIALKPILQAWLEEAEGAQREKMNKP

Variants of: B1
Assay: abundance fitness (aPCA) (normalised: wild type 0, dead -1); higher = more abundant; growth selection in yeast, the domain comes from the species named
Details: Homo sapiens

Variant	abundance fitness
RELEAFAERFKQRRIKLGVTQADVGSALANLKIPGVGSLSQSTICLFESLTLSHNNMIALKPILQAWLEEAEGAQREKMNKP [R46L]	-0.176 ± 0.05
RELEAFAERFKQRRIKLGVTQADVGSALANLKIPGVGSLSQSTICAFESLTLSHNNMIALKPILQAWLEEAEGAQREKMNKP [R46A]	0.094 ± 0.047
RELEAFAERFKQRRIKLGVTQADVGSALANLKIPGVGSLSQSTICPFESLTLSHNNMIALKPILQAWLEEAEGAQREKMNKP [R46P]	-0.576 ± 0.18
RELEAFAERFKQRRIKLGVTQADVGSALANLKIPGVGSLSQSTICYFESLTLSHNNMIALKPILQAWLEEAEGAQREKMNKP [R46Y]	-0.307 ± 0.17
RELEAFAERFKQRRIKLGVTQADVGSALANLKIPGVGSLSQSTICGFESLTLSHNNMIALKPILQAWLEEAEGAQREKMNKP [R46G]	-0.038 ± 0.038
RELEAFAERFKQRRIKLGVTQADVGSALANLKIPGVGSLSQSTICSFESLTLSHNNMIALKPILQAWLEEAEGAQREKMNKP [R46S]	-0.009 ± 0.059
RELEAFAERFKQRRIKLGVTQADVGSALANLKIPGVGSLSQSTICIFESLTLSHNNMIALKPILQAWLEEAEGAQREKMNKP [R46I]	-0.971 ± 0.33
RELEAFAERFKQRRIKLGVTQADVGSALANLKIPGVGSLSQSTICVFESLTLSHNNMIALKPILQAWLEEAEGAQREKMNKP [R46V]	-0.503 ± 0.071
RELEAFAERFKQRRIKLGVTQADVGSALANLKIPGVGSLSQSTICWFESLTLSHNNMIALKPILQAWLEEAEGAQREKMNKP [R46W]	-0.391 ± 0.067
RELEAFAERFKQRRIKLGVTQADVGSALANLKIPGVGSLSQSTICKFESLTLSHNNMIALKPILQAWLEEAEGAQREKMNKP [R46K]	0.005 ± 0.089
RELEAFAERFKQRRIKLGVTQADVGSALANLKIPGVGSLSQSTICCFESLTLSHNNMIALKPILQAWLEEAEGAQREKMNKP [R46C]	-0.117 ± 0.1
RELEAFAERFKQRRIKLGVTQADVGSALANLKIPGVGSLSQSTICHFESLTLSHNNMIALKPILQAWLEEAEGAQREKMNKP [R46H]	-0.203 ± 0.17
RELEAFAERFKQRRIKLGVTQADVGSALANLKIPGVGSLSQSTICDFESLTLSHNNMIALKPILQAWLEEAEGAQREKMNKP [R46D]	0.014 ± 0.11
RELEAFAERFKQRRIKLGVTQADVGSALANLKIPGVGSLSQSTICEFESLTLSHNNMIALKPILQAWLEEAEGAQREKMNKP [R46E]	0.055 ± 0.061
RELEAFAERFKQRRIKLGVTQADVGSALANLKIPGVGSLSQSTICNFESLTLSHNNMIALKPILQAWLEEAEGAQREKMNKP [R46N]	0.047 ± 0.2
RELEAFAERFKQRRIKLGVTQADVGSALANLKIPGVGSLSQSTICMFESLTLSHNNMIALKPILQAWLEEAEGAQREKMNKP [R46M]	0.128 ± 0.084
RELEAFAERFKQRRIKLGVTQADVGSALANLKIPGVGSLSQSTICQFESLTLSHNNMIALKPILQAWLEEAEGAQREKMNKP [R46Q]	0.042 ± 0.07
RELEAFAERFKQRRIKLGVTQADVGSALANLKIPGVGSLSQSTICRFESFTLSHNNMIALKPILQAWLEEAEGAQREKMNKP [L50F]	0.052 ± 0.042
RELEAFAERFKQRRIKLGVTQADVGSALANLKIPGVGSLSQSTICRFESATLSHNNMIALKPILQAWLEEAEGAQREKMNKP [L50A]	0.031 ± 0.032
RELEAFAERFKQRRIKLGVTQADVGSALANLKIPGVGSLSQSTICRFESGTLSHNNMIALKPILQAWLEEAEGAQREKMNKP [L50G]	0.049 ± 0.038
RELEAFAERFKQRRIKLGVTQADVGSALANLKIPGVGSLSQSTICRFESDTLSHNNMIALKPILQAWLEEAEGAQREKMNKP [L50D]	-0.425 ± 0.053
RELEAFAERFKQRRIKLGVTQADVGSALANLKIPGVGSLSQSTICRFESHTLSHNNMIALKPILQAWLEEAEGAQREKMNKP [L50H]	0.044 ± 0.045
RELEAFAERFKQRRIKLGVTQADVGSALANLKIPGVGSLSQSTICRFESETLSHNNMIALKPILQAWLEEAEGAQREKMNKP [L50E]	-0.26 ± 0.057

Variant	abundance fitness
RELEAFAERFKQRRIKLGVTQADVGSALANLKIPGVGSLSQSTICRFESCTLSHNNMIALKPILQAWLEEAEGAQREKMNKP [L50C]	0.095 ± 0.046
RELEAFAERFKQRRIKLGVTQADVGSALANLKIPGVGSLSQSTICRTESLTLSHNNMIALKPILQAWLEEAEGAQREKMNKP [F47T]	-0.822 ± 0.3
RELEAFAERFKQRRIKLGVTQADVGSALANLKIPGVGSLSQSTICRCESLTLSHNNMIALKPILQAWLEEAEGAQREKMNKP [F47C]	-0.969 ± 0.28
RELEAFAERFKQRRIKLGVTQADVGSALANLKIPGVGSLSQSTICRIESLTLSHNNMIALKPILQAWLEEAEGAQREKMNKP [F47I]	-0.917 ± 0.28
RELEAFAERFKQRRIKLGVTQADVGSALANLKIPGVGSLSQSTICRQESLTLSHNNMIALKPILQAWLEEAEGAQREKMNKP [F47Q]	-1 ± 0.34
RELEAFAERFKQRRIKLGVTQADVGSALANLKIPGVGSLSQSTICRYESLTLSHNNMIALKPILQAWLEEAEGAQREKMNKP [F47Y]	-0.272 ± 0.12
RELEAFAERFKQRRIKLGVTQADVGSALANLKIPGVGSLSQSTICRRESLTLSHNNMIALKPILQAWLEEAEGAQREKMNKP [F47R]	-0.934 ± 0.12
RELEAFAERFKQRRIKLGVTQADVGSALANLKIPGVGSLSQSTICRVESLTLSHNNMIALKPILQAWLEEAEGAQREKMNKP [F47V]	-0.706 ± 0.095
RELEAFAERFKQRRIKLGVTQADVGSALANLKIPGVGSLSQSTICREESLTLSHNNMIALKPILQAWLEEAEGAQREKMNKP [F47E]	-0.819 ± 0.15
RELEAFAERFKQRRIKLGVTQADVGSALANLKIPGVGSLSQSTICRSESLTLSHNNMIALKPILQAWLEEAEGAQREKMNKP [F47S]	-0.717 ± 0.14
RELEAFAERFKQRRIKLGVTQADVGSALANLKIPGVGSLSQSTICRAESLTLSHNNMIALKPILQAWLEEAEGAQREKMNKP [F47A]	-1.03 ± 0.18
RELEAFAERFKQRRIKLGVTQADVGSALANLKIPGVGSLSQSTICRPESLTLSHNNMIALKPILQAWLEEAEGAQREKMNKP [F47P]	-0.717 ± 0.19
RELEAFAERFKQRRIKLGVTQADVGSALANLKIPGVGSLSQSTICRLESLTLSHNNMIALKPILQAWLEEAEGAQREKMNKP [F47L]	-0.145 ± 0.063
RELEAFAERFKQRRIKLGVTQADVGSALANLKIPGVGSLSQSTICRFISLTLSHNNMIALKPILQAWLEEAEGAQREKMNKP [E48I]	-1.28 ± 0.17
RELEAFAERFKQRRIKLGVTQADVGSALANLKIPGVGSLSQSTICRFDSLTLSHNNMIALKPILQAWLEEAEGAQREKMNKP [E48D]	-1 ± 0.09
RELEAFAERFKQRRIKLGVTQADVGSALANLKIPGVGSLSQSTICRFSSLTLSHNNMIALKPILQAWLEEAEGAQREKMNKP [E48S]	-0.979 ± 0.063
RELEAFAERFKQRRIKLGVTQADVGSALANLKIPGVGSLSQSTICRFCSLTLSHNNMIALKPILQAWLEEAEGAQREKMNKP [E48C]	-1.27 ± 0.18
RELEAFAERFKQRRIKLGVTQADVGSALANLKIPGVGSLSQSTICRFKSLTLSHNNMIALKPILQAWLEEAEGAQREKMNKP [E48K]	-0.823 ± 0.091
RELEAFAERFKQRRIKLGVTQADVGSALANLKIPGVGSLSQSTICRFVSLTLSHNNMIALKPILQAWLEEAEGAQREKMNKP [E48V]	-1.04 ± 0.072
RELEAFAERFKQRRIKLGVTQADVGSALANLKIPGVGSLSQSTICRFASLTLSHNNMIALKPILQAWLEEAEGAQREKMNKP [E48A]	-1.1 ± 0.094
RELEAFAERFKQRRIKLGVTQADVGSALANLKIPGVGSLSQSTICRFMSLTLSHNNMIALKPILQAWLEEAEGAQREKMNKP [E48M]	-1.23 ± 0.19
RELEAFAERFKQRRIKLGVTQADVGSALANLKIPGVGSLSQSTICRFTSLTLSHNNMIALKPILQAWLEEAEGAQREKMNKP [E48T]	-0.954 ± 0.08
RELEAFAERFKQRRIKLGVTQADVGSALANLKIPGVGSLSQSTICRFPSLTLSHNNMIALKPILQAWLEEAEGAQREKMNKP [E48P]	-0.856 ± 0.076

Variant	abundance fitness
RELEAFAERFKQRRIKLGVTQADVGSALANLKIPGVGSLSQSTICRFWSLTLSHNNMIALKPILQAWLEEAEGAQREKMNKP [E48W]	-0.811 ± 0.078
RELEAFAERFKQRRIKLGVTQADVGSALANLKIPGVGSLSQSTICRFNSLTLSHNNMIALKPILQAWLEEAEGAQREKMNKP [E48N]	-0.973 ± 0.11
RELEAFAERFKQRRIKLGVTQADVGSALANLKIPGVGSLSQSTICRFYSLTLSHNNMIALKPILQAWLEEAEGAQREKMNKP [E48Y]	-1.05 ± 0.12
RELEAFAERFKQRRIKLGVTQADVGSALANLKIPGVGSLSQSTICRFHSLTLSHNNMIALKPILQAWLEEAEGAQREKMNKP [E48H]	-1.12 ± 0.12
RELEAFAERFKQRRIKLGVTQADVGSALANLKIPGVGSLSQSTICRFENLTLSHNNMIALKPILQAWLEEAEGAQREKMNKP [S49N]	0.061 ± 0.045
RELEAFAERFKQRRIKLGVTQADVGSALANLKIPGVGSLSQSTICRFERLTLSHNNMIALKPILQAWLEEAEGAQREKMNKP [S49R]	-0.073 ± 0.029
RELEAFAERFKQRRIKLGVTQADVGSALANLKIPGVGSLSQSTICRFETLTLSHNNMIALKPILQAWLEEAEGAQREKMNKP [S49T]	0.001 ± 0.035
RELEAFAERFKQRRIKLGVTQADVGSALANLKIPGVGSLSQSTICRFEHLTLSHNNMIALKPILQAWLEEAEGAQREKMNKP [S49H]	-0.062 ± 0.039
RELEAFAERFKQRRIKLGVTQADVGSALANLKIPGVGSLSQSTICRFEQLTLSHNNMIALKPILQAWLEEAEGAQREKMNKP [S49Q]	0.052 ± 0.043
RELEAFAERFKQRRIKLGVTQADVGSALANLKIPGVGSLSQSTICRFEFLTLSHNNMIALKPILQAWLEEAEGAQREKMNKP [S49F]	-0.632 ± 0.065
RELEAFAERFKQRRIKLGVTQADVGSALANLKIPGVGSLSQSTICRFEMLTLSHNNMIALKPILQAWLEEAEGAQREKMNKP [S49M]	-0.101 ± 0.037
RELEAFAERFKQRRIKLGVTQADVGSALANLKIPGVGSLSQSTICRFELLTLSHNNMIALKPILQAWLEEAEGAQREKMNKP [S49L]	-0.181 ± 0.03
RELEAFAERFKQRRIKLGVTQADVGSALANLKIPGVGSLSQSTICRFEGLTLSHNNMIALKPILQAWLEEAEGAQREKMNKP [S49G]	-0.002 ± 0.029
RELEAFAERFKQRRIKLGVTQADVGSALANLKIPGVGSLSQSTICRFECLTLSHNNMIALKPILQAWLEEAEGAQREKMNKP [S49C]	-0.082 ± 0.037
RELEAFAERFKQRRIKLGVTQADVGSALANLKIPGVGSLSQSTICRFEALTLSHNNMIALKPILQAWLEEAEGAQREKMNKP [S49A]	-0.004 ± 0.031
RELEAFAERFKQRRIKLGVTQADVGSALANLKIPGVGSLSQSTICRFEELTLSHNNMIALKPILQAWLEEAEGAQREKMNKP [S49E]	0.045 ± 0.039
RELEAFAERFKQRRIKLGVTQADVGSALANLKIPGVGSLSQSTICRFEILTLSHNNMIALKPILQAWLEEAEGAQREKMNKP [S49I]	-0.573 ± 0.063
RELEAFAERFKQRRIKLGVTQADVGSALANLKIPGVGSLSQSTICRFEWLTLSHNNMIALKPILQAWLEEAEGAQREKMNKP [S49W]	-0.541 ± 0.053
RELEAFAERFKQRRIKLGVTQADVGSALANLKIPGVGSLSQSTICRFEYLTLSHNNMIALKPILQAWLEEAEGAQREKMNKP [S49Y]	-0.396 ± 0.044
RELEAFAERFKQRRIKLGVTQADVGSALANLKIPGVGSLSQSTICRFEVLTLSHNNMIALKPILQAWLEEAEGAQREKMNKP [S49V]	-0.654 ± 0.046
RELEAFAERFKQRRIKLGVTQADVGSALANLKIPGVGSLSQSTIYRFESLTLSHNNMIALKPILQAWLEEAEGAQREKMNKP [C45Y]	-0.037 ± 0.1

Reference: the Human Domainome abundance scans (Beltran et al. 2025)
